In general, IC50 refers to the point on the concentration scale where inhibition reaches its midpoint.

Assay [1] addresses T1, biotinylated APRIL (Homo sapiens (Human), UniProt O75888 105-250, biotinylated using NHS-biotin at a molar ratio of 20:1 biotin:APRIL).
T1 construct: also called bio-APRIL
T1 sequence: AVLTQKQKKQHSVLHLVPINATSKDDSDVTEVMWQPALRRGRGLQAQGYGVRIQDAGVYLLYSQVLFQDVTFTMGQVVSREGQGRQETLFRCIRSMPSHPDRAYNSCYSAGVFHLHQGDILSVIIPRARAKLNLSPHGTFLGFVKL
Put plainly: scFv inhibition of bio-APRIL (5 ng/ml) binding to coated BCMA fusion protein, streptavidin-DELFIA. The procedure: (§1) APRIL binds to BCMA with higher affinity than its binds to TACI so, inhibition of biotinylated APRIL (bio-APRIL) binding to BCMA can be used to screen selection outputs as periplasmic extracts for neutralizers and then assess potency of the positives as purified scFvs. To perform this assay, each well of a black 96 well flat-bottomed plate (Costar) was coated with 1.25 ng BCMA fusion protein overnight at 4° C. The wells were blocked with 3% milk in PBS for an hour at room temperature. ScFv were then added in the presence of 5 ng/ml biotinylated APRIL for 90 minutes at room temperature. Binding of biotinylated APRIL was detected via streptavidin Delfia (Wallac) added at a 1:1000 dilution in Delfia assay buffer (Wallac). After an hour at room temperature this was read on a Wallac 1420 workstation at 620 nm.

The target of assay [2] is T1, biotinylated APRIL. The assay is described as follows: scFv inhibition of bio-APRIL (50 ng/ml) binding to coated TACI fusion protein, streptavidin-DELFIA; partial inhibition. The procedure:
as §1
(§2) An assay similar to that described above can also be used to test if anti-APRIL antibodies of the invention are able to inhibit binding of bio-APRIL to TACI. In this case, the plate was coated with 2.5 ng TACI fusion protein per well and scFv were added in the presence of 50 ng/ml biotinylated APRIL instead of 5 ng/ml. Otherwise, the method was identical to that for the BCMA:bio-APRIL assay.

The target of assay [3] is T1, biotinylated APRIL. The assay is described as follows: scFv inhibition of bio-APRIL (5 ng/ml) binding to coated BCMA fusion protein, streptavidin-DELFIA; partial inhibition. The procedure:
as §1

The target of assay [4] is T1, biotinylated APRIL. The assay is described as follows: receptor binding inhibition assay: scFv titrated with bio-APRIL (5 ng/ml); blocked binding of bio-APRIL to plate-coated BCMA fusion protein; streptavidin Delfia, fluorescence counts. The protocol: as §1
Assay [5] concerns the target T1, biotinylated APRIL. Put plainly: scFv inhibition of bio-APRIL (50 ng/ml) binding to coated TACI fusion protein, streptavidin-DELFIA. The procedure: as §1, §2
The target in assay [6] is T2, BCMA (Homo sapiens (Human), UniProt Q02223 1-48, limits assumed).
T2 chain: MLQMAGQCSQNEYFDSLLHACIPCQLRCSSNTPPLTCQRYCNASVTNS
Put plainly: Specificity phage ELISA (scFv on phage, anti-M13-HRP, A450). The protocol:
(§3) Flexible 96-well plates (Falcon) were coated overnight at 4° C. with each antigen (1 μg/ml). All antigens were coated in PBS. After coating, the solutions were removed from the wells, and the plates were blocked for 1 hour at room temperature in MPBS. The plates were washed 3 times with PBS and then 50 μl of pre-blocked phage was added to each well. The plates were incubated at room temperature for 1 hour and then washed with 3 changes of PBST followed by 3 changes of PBS.
(§4) To each well, 50 μl of an anti-M13-HRP conjugate (Pharmacia) at a 1 in 5000 dilution in MPBS was added and the plates incubated at room temperature for 1 hour. Each plate was washed three times with PBST followed by three times with PBS.
(§5) Fifty μl of TMB substrate was then added to each well, and incubated at room temperature for 30 minutes or until color development. The reaction was stopped by the addition of 25 μl of 0.5 M H₂SO₄. The signal generated was measured by reading the absorbance at 450 nm (A₄₅₀) using a microtitre plate reader (Bio-Rad 3550).

In assay [7] the target is T3, TACI (Homo sapiens (Human), UniProt O14836 1-154, limits assumed).
T3 sequence: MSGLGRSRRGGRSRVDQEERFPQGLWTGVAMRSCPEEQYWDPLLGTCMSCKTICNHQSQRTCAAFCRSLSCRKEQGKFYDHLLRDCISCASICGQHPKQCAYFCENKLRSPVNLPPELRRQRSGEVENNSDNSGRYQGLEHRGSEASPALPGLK
The assay is described as above. The protocol: as §3, §4, §5

The target of assay [8] is T4, BLyS (Homo sapiens (Human), UniProt Q9Y275 134-285).
T4 construct: also called Neutrokine-alpha
The description is as above. The protocol: as §3, §4, §5

Assay [9] has as its target T5, LIGHT (Homo sapiens (Human), UniProt O43557 83-240, limits assumed).
T5 chain: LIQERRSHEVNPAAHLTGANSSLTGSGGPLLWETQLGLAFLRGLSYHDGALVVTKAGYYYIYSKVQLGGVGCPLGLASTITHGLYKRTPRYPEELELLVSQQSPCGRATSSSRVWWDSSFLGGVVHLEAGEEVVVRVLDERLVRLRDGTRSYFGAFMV
The assay is described as above. The protocol:
as §3, §4, §5

The target of assay [10] is T6, TNF-α (Homo sapiens (Human), UniProt P01375 77-233).
T6 construct: also called TNF-alpha
Described as above. The protocol:
as §3, §4, §5

Assay [11] deals with T7, BSA (UniProt P02769 25-607).
T7 construct: Unrelated control antigen coated at 1 µg/ml in the phage ELISAs
Described as above. The protocol:
as §3, §4, §5

T4 sequence (Q9Y275 134-285 limits assumed): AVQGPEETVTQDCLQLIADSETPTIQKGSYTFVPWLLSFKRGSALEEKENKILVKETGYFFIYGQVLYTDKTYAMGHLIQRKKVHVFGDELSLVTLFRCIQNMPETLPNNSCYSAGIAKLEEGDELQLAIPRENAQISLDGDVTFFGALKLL
T7 sequence (P02769 25-607 limits assumed): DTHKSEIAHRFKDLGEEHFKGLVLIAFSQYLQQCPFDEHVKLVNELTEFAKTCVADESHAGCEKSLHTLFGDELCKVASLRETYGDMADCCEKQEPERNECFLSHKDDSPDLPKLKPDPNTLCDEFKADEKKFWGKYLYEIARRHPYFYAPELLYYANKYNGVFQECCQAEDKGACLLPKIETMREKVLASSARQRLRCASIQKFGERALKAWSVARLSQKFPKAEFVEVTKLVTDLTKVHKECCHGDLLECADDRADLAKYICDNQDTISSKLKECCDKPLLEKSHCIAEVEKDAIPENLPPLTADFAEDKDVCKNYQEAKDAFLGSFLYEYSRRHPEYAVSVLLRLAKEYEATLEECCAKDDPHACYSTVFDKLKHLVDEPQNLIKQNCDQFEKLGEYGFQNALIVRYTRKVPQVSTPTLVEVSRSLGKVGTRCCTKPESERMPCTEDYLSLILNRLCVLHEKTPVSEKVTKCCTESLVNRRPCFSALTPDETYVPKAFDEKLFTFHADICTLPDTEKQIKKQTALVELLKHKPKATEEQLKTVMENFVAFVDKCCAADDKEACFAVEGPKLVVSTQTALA
T6 sequence (P01375 77-233 limits assumed): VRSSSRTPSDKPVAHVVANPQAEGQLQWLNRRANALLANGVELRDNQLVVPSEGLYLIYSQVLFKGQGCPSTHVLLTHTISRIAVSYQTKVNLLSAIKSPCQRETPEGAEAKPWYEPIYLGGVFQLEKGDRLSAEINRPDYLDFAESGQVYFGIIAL

B1: A034G03 (scFv)
scFv: QVQLQQSGAEVKKPGSSVKVSCKASGGTFSNYAISWVRQAPGQGLEWMGGIIPLFDTPNYAQKFQGRVTITADESTSTAYMELSSLRSEDTAVYYCARGNTGPRPFDPWGQGTLVTVSSGGGGSGGGGSGGGGSAQAVLTQPSSVSGAPGQRVTISCSATSPNIGAGDEIHWYQVSPGKAPKLLIYGDIKRPSGVSDRFSGSKSGTTASLAITGLRPEDEADYYCQSYDRTLSGSVVFGGGTKVTVLG
For the molecule B1, the IC50 amounted to 6 nM in assay [1] and 36 nM in [2].

B2: A027B01 (scFv)
scFv: QVQLLQSAAEVKKPGSSVKVSCKTSGGTFRNHAISWVRQAPGQGLEWMGGIIPIFGTANYAQKFQGRVTITADESTSTAYMELSSLRSEDTAVYYCARGISAGMDVWGRGTLVTVSSGGGGSGGGGSGGGGSDIQMTQSPSFLSASIGDRVTITCRASEGIYHWLAWYQQKPGKAPKLLIYKASSLASGAPSRFSGSGSGTDFTLTISSLQPDDFATYYCQQYSNYPLTFGGGTKLEIKR
As to B2, the figures for the IC50 in [3] and in assay [2] were 3.1 nM and 94 nM, respectively.

B3: A010D09 (scFv)
scFv: QVQLVQSGAEVKKLGSSVKVSCKASGGTFSSYAISWVRQAPGQGLEWMGGIIPIFGTANYAQKFQGRVTITADESTSTAYMELSSLRSEDTAVYYCARDLSRLGMDVWGQGTTVTVSSGGGGSGGGGSGGGGSDIQMTQSPSTLSASIGDRVTITCRASEGIYHWLAWYQQKPGKAPKLLIYKASSLASGAPSRFSGSGSGTDFTLTISSLQPDDFATYYCQQYSNYPLTFGGGTKLEIKR
As to B3, the values for the IC50 in [3], in [2] and in assay [4] were 2.3 nM, 12 nM and 3 nM, respectively.

B4: A053H04 (scFv)
scFv: EVQLVQSGAEVKKPGSSVKVSCKASGGTFSNYAISWVRQAPGQGLEWMGGIIPLFDTPNYAQKFQGRVTITADESTSTAYMELSSLRSEDTAVYYCARGNTGPRPFDPWGKGTTVTVSSGGGGSGGGGSGGGGSAQAVLTQPSSVSGAPGQRVTVSCTGSSSNIGAGYEVNWYQQLPGTAPKLLIYGDTNRPSGVPDRFSGSKSGTSASLAITGLQAEDEANYYCQSYDSGPGGPVVFGGGTKLTVLG
As to B4, the IC50 in assay [1] came to 25 nM; in assay [2], 139 nM.

B5: A030D09 (scFv)
scFv: QVQLQQSGAEVKKPGSSVKVSCKTSGGAFSHYAIHWVRLAPGQGLEWMGDIIPVYGSTTYAQKFQDRVTISADESTSTAYMELSSLRSEDTAVYYCARSWYYDILTGYWDYYYMDVWGKGTLVTVSSGGGGSGGGGSGGGGSSELTQDPAVSVALGQTVRITCQGDSLRSYYASWYQQKPGQAPVLVIYGKNNRPSGIPDRFSGSSSGNTASLTITGAQAEDEADYYCNSRDSSGNHVVFGGGTKLTVLG
For the molecule B5, the half-maximal inhibitory concentration (IC50) was 55 nM in [1] and 150 nM in assay [2].

B6: A027A11 (scFv)
scFv: QVQLQQSGAEVKKPGSSVKVSCKASGGTFSTYAITWVRQAPGQGLEWMGDIIPVFGIPNYAQMFQDRVTITADESTSTAYLELNSLGAEDTAVYYCARGSQAFEIWGKGTTVTVSSGGGGSGGGGSGGGGSQSVLTQPASVSGSPGQSITISCTGTSSDVGGYNYVSWYQQHPGKAPKLMIYEGSKRPSGVSNRFSGSKSGNTASLTISGLQAEDEADYYCSSYTTRSTRVFGGGTKLTVLG
Regarding B6, the IC50 came out at 2.7 nM in assay [1] and 5.6 nM in assay [2].

B7: A013B07 (scFv)
scFv: EVQLVQSGAEVKKPGASVKVSCKTSGYTFTDNYMHWVRQAPGQGLEWMGWISPNSSTTLYAQKFRGRVTLTRDTSVSTAYMELSGLDSDDTALYFCARGGRLAGSTVFTPAFEYWGQGTMVTVSSGGGGSGGGGSGGGGSAQSVLTQPPSVSEAPRQRVTISCSGSSSNIGANAVNWYQQLPGKAPKLLIYFDDLLPSGVSDRFSGSKSGTSASLAISGLQSEDEADYYCAAWDDSLNGVVFGGGTKLTVLG
As for B7, the IC50 in [1] is 7.7 nM; in assay [5], 10 nM.

B8: A020F03 (scFv)
scFv: EVQLVQSGAEVKKPGASVKVSCKTSGYTFTDNYMHWVRQAPGQGLEWMGWISPNSSTTLYAQKFRGRVTLTRDTSVSTAYMELSGLDSDDTALYFCARGGRLAGSTVFTPAFEYWGRGTMVTVSSGGGGSGGGGSGGGGSAQAVLTQPSSVSEAPRQRVTISCSGSSSNIGNNAVKWYQQLPGKAPKLLIYYDDLLPSGVSDRFSGSKSGTSASLAISGLQSEDEADYYCAAWDDSLNGYVFGTGTKVTVLG
In the case of B8, the values for the half-maximal inhibitory concentration (IC50) in assay [1] and in [5] were 12 nM and 3.5 nM, respectively.

B9: A034H05 (scFv)
scFv: EVQLVQSGAEVKKPGSSVKVSCKVSGGSFPNYAINWVRQAPGQGLEWMGSLVPVFLTPNYAERFQDRVTITADESTSTAYMELRSLRSDDTAVFYCARSGGDGYRDYGMDLWGRGTLVTVSSGGGGSGGGGSGGGGSAQSVLTQPPSASGTPGQRVTISCSGSSSNIGRNTVNWFQQLPGTAPKLLIYSSNQRPSGVPDRFAGSKSGTSASLAISGLQSEDEADYYCAAWDDSLNGLVFGGGTKLTVLG
With B9, the IC50 in [1] is 10 nM; in assay [2] it was 13 nM.

B10: A004G02 (scFv)
scFv: QVQLVQSGAEVKKPGSSVKVSCKASGGTFSSYGIRWVRQAPGQGLEWMGGIIPIFGTANYAQKFQGRVTITADEYTSTAYMELSSLRSEDTAVYYCARSNPQYDAFDIWGQGTTVTVSSGGGGSGGGGSGGGGSSYVLTQPPSVSGTPGQRVTVSCSGGRSNIGSNTVKWYQQLPGTAPKLLIYGNDQRPSGVPDRFSGSKSGNTASLTVSGLQVEDEADYYCQSYDSSLRGSVFGGGTKLTVLG
B10: the binding result in [6], in assay [7], in [8], in [9], in assay [10] and in [11] was “no binding (tested: antigen coated at 1 µg/ml)” throughout. Further, the half-inhibitory concentration (IC50) in assay [1] was 19 nM; in [5] it was 800 nM.

Source of the values: patent publication US20030059862A1 (Human Genome Sciences, published 2003).
